According to patent US20220275083A1 (EUTILEX, published 2022):

Tests used:
4-1BB antigen (abclon) = biological target: T1, 4-1BB antigen (abclon) (UniProt Q07011 24-186); assay: SPR, Biacore T200; variant captured on CM5, 4-1BB antigen injected
T1 construct: Bought antigen
Protocol: (§1) Affinity to 4-1BB was determined using the bispecific epitope binding protein variants diluted to 5 μg/ml and then fixed to CM5 chip (Cytiva, BR-1005-30) with human capture (Cytiva, Cat. No. BR-1008-39). The 4-1BB antigen (abclon) was injected at concentrations of 100, 50, 25, 12.5, 6.25, and 3.125 nM, the association time was set to 150 seconds, and the dissociation time was set to 240 seconds. Biacore T200 (cytiva) was used as the analysis equipment.

[1] = biological target: T2, PD-L1 antigen (SinoBiologics, Cat. No. 10084-H08H) (human, UniProt Q9NZQ7 19-238); assay: SPR, Biacore T200; variant captured on CM5, PD-L1 antigen injected
T2 construct: Bought antigen; also called human PD-L1
Protocol: as §1
(§2) Affinity to PD-L1 was determined using the bispecific epitope binding protein variants diluted to 10 μg/ml and then fixed to CM5 chip with human capture.

[2] = biological target: T2, PD-L1 antigen (SinoBiologics, Cat. No. …); assay: SPR, Biacore T200; comparison of S03 with human PD-1-Fc
[3] = biological target: T2, PD-L1 antigen (SinoBiologics, Cat. No. …); assay: SPR, Biacore T200; S03 captured on CM5, PD-L1 antigen injected (same values as Table 2)
Protocol: as §1, §2

[4] = biological target: T3, biotinylated PD-L2 (SinoBiologics, Cat. No. 10292-H08H-B) (UniProt Q9BQ51 20-219, biotinylated); assay: ELISA, S03 coated in 4-fold dilutions up to 0.1 ug/ml, biotinylated PD-L2 0.1 ug/ml, avidin-HRP
T3 construct: Bought antigen
T3 sequence (looked up): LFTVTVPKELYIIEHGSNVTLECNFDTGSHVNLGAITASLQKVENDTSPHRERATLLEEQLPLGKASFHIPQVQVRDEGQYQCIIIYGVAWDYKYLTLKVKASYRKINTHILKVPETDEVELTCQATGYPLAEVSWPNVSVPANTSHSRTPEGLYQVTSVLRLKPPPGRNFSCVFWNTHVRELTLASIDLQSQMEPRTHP

[5] = biological target: T2, PD-L1 antigen (SinoBiologics, Cat. No. …); assay: dual antigen ELISA: PD-L1 coated, S03 titrated, detected with biotinylated 4-1BB and avidin-HRP (signal needs both antigens)
[6] = biological target: T2, PD-L1 antigen (SinoBiologics, Cat. No. …); assay: SPR, Biacore T200; S03 captured on CM5, PD-L1 antigen injected (same values as Table 2); Table 3, comparison with natural PD1-Fc
[7] = biological target: T4, biotinylated C1q (comp Tech, Cat. No. A099) protein (UniProt P02745 23-245; P02746 28-253; P02747 29-245, biotinylated (chain not stated)); assay: C1q ELISA, S03 coated at 75 nM, biotinylated C1q titrated in 2-fold steps from 2 ug/ml, avidin-HRP
T4 construct: Bought C1q, biotinylated with a kit

[8] = biological target: T2, PD-L1 antigen (SinoBiologics, Cat. No. …); assay: ELISA, PD-L1 antigen coated, anti-human IgG Fc-HRP detection, 11 points

T1 sequence (Q07011 24-186): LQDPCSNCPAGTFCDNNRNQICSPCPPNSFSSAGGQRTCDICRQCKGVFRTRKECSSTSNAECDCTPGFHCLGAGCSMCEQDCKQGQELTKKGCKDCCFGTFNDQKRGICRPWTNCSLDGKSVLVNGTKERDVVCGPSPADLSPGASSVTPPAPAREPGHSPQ
T2 sequence (Q9NZQ7 19-238 limits assumed): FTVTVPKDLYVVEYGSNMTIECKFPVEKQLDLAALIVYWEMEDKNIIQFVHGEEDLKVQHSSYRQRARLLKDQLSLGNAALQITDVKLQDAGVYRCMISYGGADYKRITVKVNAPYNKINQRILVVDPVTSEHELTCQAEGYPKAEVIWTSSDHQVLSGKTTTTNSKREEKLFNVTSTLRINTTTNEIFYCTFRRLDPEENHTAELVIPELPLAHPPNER
T4 sequence (P02745 23-245, chain 1 of 3): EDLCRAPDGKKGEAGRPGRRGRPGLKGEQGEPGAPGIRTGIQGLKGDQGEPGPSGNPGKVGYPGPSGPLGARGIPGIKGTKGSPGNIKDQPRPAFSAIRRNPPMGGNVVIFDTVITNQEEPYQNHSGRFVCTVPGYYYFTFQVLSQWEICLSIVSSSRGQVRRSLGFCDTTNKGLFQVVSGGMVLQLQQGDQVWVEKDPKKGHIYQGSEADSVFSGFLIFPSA
T4 sequence (P02746 28-253, chain 2 of 3): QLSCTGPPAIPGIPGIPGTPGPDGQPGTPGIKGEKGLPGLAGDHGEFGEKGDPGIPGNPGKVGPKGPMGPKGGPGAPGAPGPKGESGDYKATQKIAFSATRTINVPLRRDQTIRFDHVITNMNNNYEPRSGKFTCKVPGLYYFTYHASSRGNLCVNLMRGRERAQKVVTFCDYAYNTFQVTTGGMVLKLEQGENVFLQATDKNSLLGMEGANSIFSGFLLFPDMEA
T4 sequence (P02747 29-245, chain 3 of 3): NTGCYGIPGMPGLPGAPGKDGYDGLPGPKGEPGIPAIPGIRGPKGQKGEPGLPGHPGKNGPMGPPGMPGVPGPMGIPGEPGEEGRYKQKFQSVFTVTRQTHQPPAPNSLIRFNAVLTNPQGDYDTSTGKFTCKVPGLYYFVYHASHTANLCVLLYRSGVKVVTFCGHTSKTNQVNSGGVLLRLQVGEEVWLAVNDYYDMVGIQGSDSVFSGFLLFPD

B1: bispecific epitope binding protein S03 (bispecific antibody)
chain: DIVMTQSPAFLSVTPGEKVTITCRASQTISDYLHWYQQKPDQAPKLLIKYASQSISGIPSRFSGSGSGTDFTFTISSLEAEDAATYYCQDGHSWPPTFGQGTKLEIKGSTSGSGKPGSGEGSTKGQVQLVQSGAEVKKPGASVKLSCKASGYTFSSYWMHWVRQAPGQGLEWIGEINPGNGHTNYNEKFKSRVTMTRDTSTSTAYMELSSLRSEDTAVYYCARSFKTARAFAYWGQGTLVTVSSASGGGGSGGGGSDKTHTCPPCPAPEAAGGPSVFLFPPKPKDTLMISRTPEVTCVVVDVSHEDPEVKFNWYVDGVEVHNAKTKPREEQYNSTYRVVSVLTVLHQDWLNGKEYKCAVSNKALPAPIEKTISKAKGQPREPQVYTLPPSREEMTKNQVSLTCLVKGFYPSDIAVEWESNGQPENNYKTTPPVLDSDGSFFLYSKLTVDKSRWQQGNVFSCSVMHEALHNHYTQKSLSLSPGGGGGSGGGGSFLESPDRPWNAPTFSPALLLVAEGDNATFTCSFSNASESFHVVWHRESPSGQTDTLAAFPEDRSQPGQDHRFRVTRLPNGRDFHMSVVRAQRNDSGTYVCGVISLAPKIQIKESLRAELRVTERRAEVPTAHPSPSPRPAGQFQTLVVG
notes: Anti-4-1BB 94kvt scFv x euPD-1 with hinge and engineered IgG1 Fc (L234A, L235A, K322A, D356E, L358M)
Kd (4-1BB antigen (abclon)): 3.05 nM
koff (4-1BB antigen (abclon)): 0.000634 s⁻¹
kon (4-1BB antigen (abclon)): 208000 M⁻¹ s⁻¹
Kd [1]: 5.07 nM
koff [1]: 0.00115 s⁻¹
kon [1]: 227000 M⁻¹ s⁻¹
fold stronger binding than natural PD-1 (human PD-1-Fc) [2]: ~93 fold
Kd [3]: 5.07 nM
koff [3]: 0.00115 s⁻¹
binding result [4]: no binding (tested: log10 2.0 ng/mL (100 ng/mL coated))
EC50 (read off the curve) [5]: ~0.05 µg/mL
kon [6]: 227000 M⁻¹ s⁻¹
binding result [7]: no binding (tested: 2 ug/ml C1q)

B2: S13 (PD-L1 null variant of S03) (bispecific antibody)
chain: DIVMTQSPAFLSVTPGEKVTITCRASQTISDYLHWYQQKPDQAPKLLIKYASQSISGIPSRFSGSGSGTDFTFTISSLEAEDAATYYCQDGHSWPPTFGQGTKLEIKGSTSGSGKPGSGEGSTKGQVQLVQSGAEVKKPGASVKLSCKASGYTFSSYWMHWVRQAPGQGLEWIGEINPGNGHTNYNEKFKSRVTMTRDTSTSTAYMELSSLRSEDTAVYYCARSFKTARAFAYWGQGTLVTVSSASGGGGSGGGGSDKTHTCPPCPAPEAAGGPSVFLFPPKPKDTLMISRTPEVTCVVVDVSHEDPEVKFNWYVDGVEVHNAKTKPREEQYNSTYRVVSVLTVLHQDWLNGKEYKCAVSNKALPAPIEKTISKAKGQPREPQVYTLPPSREEMTKNQVSLTCLVKGFYPSDIAVEWESNGQPENNYKTTPPVLDSDGSFFLYSKLTVDKSRWQQGNVFSCSVMHEALHNHYTQKSLSLSPGGGGGSGGGGSFLESPDRPWNAPTFSPALLLVAEGDNATFTCSFSNASESFHVVWHRESPSGQTDALAAFPEDRSQPGQDHRFRVTRLPNGRDFHMSVVRAQRNDSGTYVCGVASLAPKIQAKESLRAELRVTERRAEVPTAHPSPSPRPAGQFQTLVVG
binding result [8]: no binding (tested: log 1.7 ug/mL as drawn (about 50 ug/mL))

B3: bispecific epitope binding protein S10 (bispecific antibody)
heavy: QVQLVQSGAEVKKPGASVKLSCKASGYTFSSYWMHWVRQAPGQGLEWIGEINPGNGHTNYNEKFKSRVTMTRDTSTSTAYMELSSLRSEDTAVYYCARSFKTARAFAYWGQGTLVTVSSASTKGPSVFPLAPSSKSTSGGTAALGCLVKDYFPEPVTVSWNSGALTSGVHTFPAVLQSSGLYSLSSVVTVPSSSLGTQTYICNVNHKPSNTKVDKKVEPKSCDKTHTCPPCPAPEAAGGPSVFLFPPKPKDTLMISRTPEVTCVVVDVSHEDPEVKFNWYVDGVEVHNAKTKPREEQYNSTYRVVSVLTVLHQDWLNGKEYKCAVSNKALPAPIEKTISKAKGQPREPQVYTLPPSREEMTKNQVSLTCLVKGFYPSDIAVEWESNGQPENNYKTTPPVLDSDGSFFLYSKLTVDKSRWQQGNVFSCSVMHEALHNHYTQKSLSLSPGGSTSGSGKPGSGEGSTKGSFLESPDRPWNAPTFSPALLLVAEGDNATFTCSFSNASESFHVVWHRESPSGQTDTLAAFPEDRSQPGQDHRFRVTRLPNGRDFHMSVVRAQRNDSGTYVCGVISLAPKIQIKESLRAELRVTERRAEVPTAHPSPSPRPAGQFQTLVVG
light: DIVMTQSPAFLSVTPGEKVTITCRASQTISDYLHWYQQKPDQAPKLLIKYASQSISGIPSRFSGSGSGTDFTFTISSLEAEDAATYYCQDGHSWPPTFGQGTKLEIKRTVAAPSVFIFPPSDEQLKSGTASVVCLLNNFYPREAKVQWKVDNALQSGNSQESVTEQDSKDSTYSLSSTLTLSKADYEKHKVYACEVTHQGLSSPVTKSFNRGEC
notes: engineered IgG1 Fc; carries euPD-1
Kd (4-1BB antigen (abclon)): 2.3 nM
koff (4-1BB antigen (abclon)): 0.000601 s⁻¹
kon (4-1BB antigen (abclon)): 262000 M⁻¹ s⁻¹
Kd [1]: 3.73 nM
koff [1]: 0.00141 s⁻¹
kon [1]: 377000 M⁻¹ s⁻¹

B4: bispecific epitope binding protein S02 (bispecific antibody)
chain: QVQLVQSGAEVKKPGASVKLSCKASGYTFSSYWMHWVRQAPGQGLEWIGEINPGNGHTNYNEKFKSRVTMTRDTSTSTAYMELSSLRSEDTAVYYCARSFKTARAFAYWGQGTLVTVSSGSTSGSGKPGSGEGSTKGDIVMTQSPAFLSVTPGEKVTITCRASQTISDYLHWYQQKPDQAPKLLIKYASQSISGIPSRFSGSGSGTDFTFTISSLEAEDAATYYCQDGHSWPPTFGQGTKLEIKASGGGGSGGGGSDKTHTCPPCPAPEAAGGPSVFLFPPKPKDTLMISRTPEVTCVVVDVSHEDPEVKFNWYVDGVEVHNAKTKPREEQYNSTYRVVSVLTVLHQDWLNGKEYKCAVSNKALPAPIEKTISKAKGQPREPQVYTLPPSREEMTKNQVSLTCLVKGFYPSDIAVEWESNGQPENNYKTTPPVLDSDGSFFLYSKLTVDKSRWQQGNVFSCSVMHEALHNHYTQKSLSLSPGGGGGSGGGGSFLESPDRPWNAPTFSPALLLVAEGDNATFTCSFSNASESFHVVWHRESPSGQTDTLAAFPEDRSQPGQDHRFRVTRLPNGRDFHMSVVRAQRNDSGTYVCGVISLAPKIQIKESLRAELRVTERRAEVPTAHPSPSPRPAGQFQTLVVGGGGGSGGGGSGGGGSFLESPDRPWNAPTFSPALLLVAEGDNATFTCSFSNASESFHVVWHRESPSGQTDTLAAFPEDRSQPGQDHRFRVTRLPNGRDFHMSVVRAQRNDSGTYVCGVISLAPKIQIKESLRAELRVTERRAEVPTAHPSPSPRPAGQFQTLVVG
notes: Anti-4-1BB 94kvt scFv x euPD-1 with hinge and engineered IgG1 Fc
Kd (4-1BB antigen (abclon)): 3.67 nM
koff (4-1BB antigen (abclon)): 0.000658 s⁻¹
kon (4-1BB antigen (abclon)): 179000 M⁻¹ s⁻¹
Kd [1]: 4.06 nM
koff [1]: 0.00132 s⁻¹
kon [1]: 324000 M⁻¹ s⁻¹
